Test results reported in paper PMC4318144 (Genes & Development, 2015).

Molecular target: the molecule itself
Test: cryo-EM structure

B1: Dark protein, full-length (residues 1–1440) (natural protein, D. melanogaster, UniProt Q7KLI1 1-1440, looked up)
chain: MDFETGEHQYQYKDILSVFEDAFVDNFDCKDVQDMPKSILSKEEIDHIIMSKDAVSGTLRLFWTLLSKQEEMVQKFVEEVLRINYKFLMSPIKTEQRQPSMMTRMYIEQRDRLYNDNQVFAKYNVSRLQPYLKLRQALLELRPAKNVLIDGVLGSGKTWVALDVCLSYKVQCKMDFKIFWLNLKNCNSPETVLEMLQKLLYQIDPNWTSRSDHSSNIKLRIHSIQAELRRLLKSKPYENCLLVLLNVQNAKAWNAFNLSCKILLTTRFKQVTDFLSAATTTHISLDHHSMTLTPDEVKSLLLKYLDCRPQDLPREVLTTNPRRLSIIAESIRDGLATWDNWKHVNCDKLTTIIESSLNVLEPAEYRKMFDRLSVFPPSAHIPTILLSLIWFDVIKSDVMVVVNKLHKYSLVEKQPKESTISIPSIYLELKVKLENEYALHRSIVDHYNIPKTFDSDDLIPPYLDQYFYSHIGHHLKNIEHPERMTLFRMVFLDFRFLEQKIRHDSTAWNASGSILNTLQQLKFYKPYICDNDPKYERLVNAILDFLPKIEENLICSKYTDLLRIALMAEDEAIFEEAHKQVQRFDDRVWFTNHGRFHQHRQIINLGDNEGRHAVYLHNDFCLIALASGQILLTDVSLEGEDTYLLRDESDSSDILRMAVFNQQKHLITLHCNGSVKLWSLWPDCPGRRHSGGSKQQLVNSVVKRFIGSYANLKIVAFYLNEDAGLPEANIQLHVAFINGDVSILNWDEQDQEFKLSHVPVLKTMQSGIRCFVQVLKRYYVVCTSNCTLTVWDLTNGSSNTLELHVFNVENDTPLALDVFDERSKTATVLLIFKYSVWRLNFLPGLSVSLQSEAVQLPEGSFITCGKRSTDGRYLLLGTSEGLIVYDLKISDPVLRSNVSEHIECVDIYELFDPVYKYIVLCGAKGKQVVHVHTLRSVSGSNSHQNREIAWVHSADEISVMTKACLEPNVYLRSLMDMTRERTQLLAVDSKERIHLIKPAISRISEWSTITPTHAASNCKINAISAFNDEQIFVGYVDGVIIDVIHDTALPQQFIEEPIDYLKQVSPNILVASAHSAQKTVIFQLEKIDPLQPNDQWPLMMDVSTKYASLQEGQYIILFSDHGVCHLDIANPSAFVKPKDSEEYIVGFDLKNSLLFLAYENNIIDVFRLIFSCNQLRYEQICEEEIAQKAKISYLVATDDGTMLAMGFENGTLELFAVENRKVQLIYSIEEVHEHCIRQLLFSPCKLLLISCAEQLCFWNVTHMRNNQLEREQKRRRSRRHKQHSVTQEDAVDAAPIAADIDVDVTFVADEFHPVNRGTAELWRNKRGNAIRPELLACVKFVGNEARQFFTDAHFSHFYAIDDEGVYYHLQLLELSRLQPPPDPVTLDIANQYEDLKNLRILDSPLMQDSDSEGADVVGNLVLEKNGGVARATPILEEASS
stoichiometry N: 16
